± gives the uncertainty stated by the source.
Test: amyloid nucleation score (Sup35N fusion, yeast selection) (log enrichment); library NNK1; higher = more nucleation; inactive = no reads after selection
In short: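 After 24 hours of induction with 100 μM copper sulfate, psi-negative yeast expressing peptides of 20 random codons fused to Sup35N were grown for 7 days at 30°C on medium lacking adenine and uracil. Input and output plasmid inserts were sequenced with Illumina, and sequences with under 100 input reads were discarded. Scores for nucleation are the DiMSum log enrichment of output over input reads, centred on the mode score of non-aggregating sequences.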

Substance	amyloid nucleation score
SSVYVRLVMGF	1.77 ± 0.61
CGDMKRSHGCYFGPRNRFCW	0.517 ± 0.47
VRLKVKCIMIH	0.962 ± 0.72
TPYYPSQKQCRMPRGACVL	-0.435 ± 0.48
KWSPIAGSTMIMEMCH	-1.08 ± 0.83
GLDFCIVRACTKRYSWNQLG	1.69 ± 0.56
CSLKKSMQNYEFHFWFLFIV	-0.757 ± 0.62
WQHFLFCKKKRVESCNVSTN	1.02 ± 0.76
GQHMASNLERMV	3.34 ± 0.085
GGHHVSPVCLEWNNLRWDI	0.897 ± 0.78
WHRRLGNMFKIASRTELRMG	-0.672 ± 1.1
CWYET	-1.27 ± 1.9
ALYSQGSSTV	-1.15 ± 1.1
SCVLESIQEFWS	-0.3 ± 0.24
LMVNLYPY	0.16 ± 0.4
KASDGLSINRGE	0.48 ± 0.73
NIGMGSTLFLGRMSEQCWCS	2.32 ± 0.14
RRSYDSLFVVVRRINTCSSP	-0.852 ± 1.1
FSHIELLERAVLMSRVRFLW	-0.514 ± 1.5
RIIYGCCAVRFARSMAKHPM	-0.716 ± 0.38
SFGPIVCGFVVKRMWKCNIG	3.63 ± 0.12
MYPTLRTRPTCIYVR	1.19 ± 0.53
NMLGSFPLTVLRKAWCCGSL	1.04 ± 0.57
ARMASHRTCLNVYLRLCAYL	-0.343 ± 0.31
EDFLYMCFRLSFVIIH	3.42 ± 0.12

Substance	amyloid nucleation score
SRCYMDSIV	0.101 ± 0.36
FNYHRRPLNYISNRQYGGLS	inactive
HVVVRRIY	-0.065 ± 0.34
EDWHVDSFGFSKTSMGTRRL	2.49 ± 0.14
LKASMW	0.322 ± 0.37
MKQQAQPVFVWSSAGGGCES	-0.606 ± 0.47
QTGAAFMVAASRGKKTGVLR	0.327 ± 0.28
IIISTGVRFTEDSCGFAWAE	-0.009 ± 0.66
FYMGGDCVYNECQGEIRLSL	-0.234 ± 0.7
TDGIAVSFTNHDVWMVDAFV	0.241 ± 1.4
ITVRPLPYRPIDVHRYFAQH	0.77 ± 0.34
MTGQTCRFEGSFRFMERCRK	0.43 ± 1
FHRWLDMWSLRRDFIGYGLG	0.095 ± 0.77
YSFRAIDTQLTQTLTWLLIR	-0.563 ± 0.53
FLVCSFNYGAAPFFGGFMHY	0.679 ± 0.23
EKGLEFHLWLRPVLRACVGY	1.01 ± 1.1
TLSGFYPMYHHLCHECVLKP	1.13 ± 0.37
DRVANNLMD	-0.344 ± 0.26
FGPRSDAVLVLYFSYVSPLD	-1.79 ± 2.4
IHKMCRAD	0.12 ± 0.55
MVHKWVIFFNRTVCRLMLPV	0.589 ± 0.37
WCNTMFWHS	1.09 ± 0.22
TSWVEAPSVSSFGWFLSVHL	1.91 ± 0.12
GPSWFGVPTAAFF	0.502 ± 0.43
MIPKNFLGGNPLQRRESPIC	0.828 ± 0.62

Substance	amyloid nucleation score
CVFIHRSFHTLFSGRRVDYP	0.229 ± 0.55
HLLRRHYNCLSHLGWCNGLF	-0.024 ± 0.29
FCYSTI	0.487 ± 0.81
GVFMKYQ	0.18 ± 1.2
SSRLVSFFGHSNTVLRMFNW	inactive
FGREPIRIKTYQSLKNRSLI	-0.013 ± 0.24
YSLFAGLREVSMDVCNDV	0.39 ± 0.5
EVTDVRLS	0.862 ± 0.62
KFVYSVGMTLSSGSFSVEIF	5.02 ± 0.053
EIMFDWVMMEKKCRILHKKT	inactive
YVCFRVDTCRLVCVRRWLNY	0.706 ± 0.51
DITYVYFSVAELLLMFLTLY	1.33 ± 0.48
YFQQEVQFEWGCVWREWCDC	0.197 ± 0.52
GKISICTRISMYSQSFVWIP	-0.109 ± 0.45
FADAASNPNAII	0.071 ± 0.4
NYLLWVAHPIVSY	-0.502 ± 0.34
IAILIYASAFKSSSGCGVKS	0.177 ± 0.64
YFLLACLNVS	0.828 ± 0.26
TMTSPVGWETSSFRRMDR	0.796 ± 0.52
TVWYYSHPS	0.34 ± 0.48
EAVRWRGRNVRNLFWDN	0.03 ± 0.35
YFVQGNMNLSHCTCWCGNRT	7.589 ± 0.046
YNVKVMCSVQSEMRGIT	0.465 ± 0.68
AVLNFIQVVVVVEVVGCYQH	2.68 ± 0.28
HGGRDVCDKGVSSRGHRW	0.276 ± 0.79

Substance	amyloid nucleation score
IDSGRAKRLSHMIWISVRHG	-1.93 ± 2.7
LVNCVVGFLTLVNFWSIHQL	0.206 ± 0.79
EQCHRVFRAL	0.362 ± 0.55
NCACC	6.12 ± 0.065
TKSTLL	-0.296 ± 0.64
LPDNSIYRYLSY	0.149 ± 0.42
VVVSNTLECSTSRVNRKVRT	-0.97 ± 0.72
ISTDPWAAHYNRTHIQ	1.98 ± 0.15
HCRKYTKTSR	-0.327 ± 0.47
SIRCLIREKA	-0.238 ± 0.75
SLMCSPNGDESRQWNPRARQ	inactive
KTLRNNLLFIQSTPK	0.1 ± 0.28
CLDMVWDLTVMFMF	1.11 ± 0.19
VYINVYHYWRFSKKYVGKLL	0.318 ± 0.17
IFTTSNQSEGRGVPAGNPNL	inactive
CVSIQDHFRGYKALDPAWFV	0.805 ± 0.27
CTPVT	0.887 ± 1
YTDFRQSLLTVT	0.07 ± 0.43
SQMAVYRPHLLVSSFMFTRS	0.274 ± 0.57
FFVVELFVSHKLRLYRVRFG	0.412 ± 0.62
FLICDGSDRQMF	0.315 ± 0.23
MGEYSRLSARSGWLDTPVDG	-0.496 ± 0.67
CSGYDGNSSYNGSNPVSFND	0.056 ± 0.77
WIMRS	inactive
LAPGGDWYY	inactive

Substance	amyloid nucleation score
LLDMHYTLEWCTKCYTDKVQ	0.121 ± 0.26
GIGMRGVQHSSCEVARYWGS	1.12 ± 0.35
FYIILNVLFPRQVTCSDK	5.7 ± 0.075
VTMLRSFMHELHSGLKKDLK	2.06 ± 0.11
CTQGCHRVNWSVTYRVVFLA	0.848 ± 0.42
PYKGIVMFVSGPP	-0.068 ± 0.54
SKFIYRRLKELFVFGYSIVT	inactive
MMSPR	-0.921 ± 2.4
IRGTLT	-1.42 ± 2.1
RPPNISLSQFYDVSCAKLRC	0.295 ± 0.31
SSTLLRMIEVRNGWEKGVWE	0.083 ± 0.2
GVQFQVVRMSCSVLSARLRL	1.29 ± 0.18
SYQVRDVIKSF	4.52 ± 0.1
MTALFGRVSG	-0.134 ± 1.1
LRNSHNVGEQFCISVRDSLG	0.007 ± 0.69
SWNNNAFAGMIPSNVVCCTY	1.97 ± 0.26
KCFRYCKKNSNWLDCRLQIW	-1.26 ± 2.1
IRSLKNPF	0.275 ± 1.2
IGTGLLS	0.451 ± 0.62
KRFTRTNILRMTCT	0.901 ± 0.48
DCPFKLPFSTRRR	0.05 ± 0.73
DEDNFVRSHVNPLYLTSADD	0.609 ± 0.83
RWVYSTRNHLKIVRNNKSEL	-2.15 ± 2.4
NYFEKR	-0.261 ± 0.47
CRYTITFLVQKYLLDFFA	-0.074 ± 0.35

Substance	amyloid nucleation score
TTDPVWFSAI	0.346 ± 0.4
CRLYVVGFFKKL	inactive
AGFVSVVVF	0.005 ± 0.38
DDKLLRVLFLMCSPYYTIIG	-0.065 ± 0.22
FVVVVGSHLGDGFCDCWVNC	2.03 ± 0.24
YYGVWVDREHWL	0.628 ± 0.48
RIELLWRKVSGKCLVQDFDI	0.117 ± 0.47
QIRLYSSGWMFGCAAYVVSM	0.853 ± 0.41
YKYFCGYKLSVEDLLLSVYQ	0.188 ± 0.27
RAFAFTW	2.38 ± 0.14
ASMWSWRYHMEAINSTKAEA	-0.745 ± 2.4
NFTNFW	-0.732 ± 0.56
NPEILCRLKIPFSSCLDSAS	0.341 ± 0.61
DKWLPIFTGGQLLSNLIFFC	0.832 ± 0.18
GQTITP	-0.689 ± 1
MCGRSGTFSAILRDREGLNI	0.219 ± 0.65
RLFPDAMDSRRYIKWQRVV	0.215 ± 0.42
FFVSIELITTRLLISQHNSY	-0.689 ± 0.89
NVLWGCQPNFVWDAWLRTEH	0.777 ± 0.73
GDKSFSYCSLCCLFWARLPR	5.83 ± 0.064
DFYFYKLSLIFKSAFRWFPV	-0.359 ± 1.2
YGQIPTFHRRSQVHLCNRIW	0.206 ± 1.6
RWCWWFFSSYAFFRSNISWV	-0.197 ± 0.42
HLNLIVTRFASIWVAAFMCR	-0.282 ± 0.77
NFLESSFYFFALVSASLSFN	0.527 ± 0.25

Substance	amyloid nucleation score
FFNVVYLTRANASYTGYSNI	5.41 ± 0.063
YYSLAVLTSLRARKSTVFND	-1.16 ± 0.78
CVLPSNYDFV	inactive
KNQKMVYTRIGLPGFG	-0.42 ± 0.56
MGTLDI	inactive
SLVVEMVNYE	-0.039 ± 0.29
YKWGWAVYHIGHGCRVWRWT	1.49 ± 0.4
VMWSVDFWYPAMSGVIPDQF	1.45 ± 0.65
DYGIWELSINMSVKYLCWLP	1.27 ± 0.13
FGFHRVGSGIMRVVAQH	0.242 ± 0.44
SDVEEGLRL	1.08 ± 0.57
VSITRVGTFIRYLFCIARCW	-0.866 ± 0.9
GSWQDSRRNFWSGRGMFERV	0.484 ± 0.47
RLFSENMQEVMV	-0.698 ± 0.52
SLPQKGIHWRQYL	0.368 ± 0.61
CRNVRQSCGYIYYCSRKHLA	0.546 ± 0.49
SLLYSITNVCTLRGRMCCLA	0.116 ± 0.45
TLIGSDLVFGSRDPGWGCTI	-0.406 ± 0.45
RRCLSIPLVCFRDKNMNMGF	-0.246 ± 0.46
YTWIEHAWSS	-0.062 ± 0.55
YFFITRAEVSDVVLLLCVCC	-0.158 ± 0.82
FLLLFDQFSVLMCCAQVLCL	4.56 ± 0.058
TFFVVCKSTLILYEI	-0.186 ± 0.52
